By Kd is commonly meant the free concentration of one partner at which half of the binding sites on the other are occupied at equilibrium, for simple one-to-one binding. A lower Kd goes with higher affinity.

Here are results for four molecules from publication PMC12079483 (2025).

The target in assay [1] is D20-20K (IL-2 with 20K PEG conjugated at Asp20) (UniProt P60568 21-153, D20 to NAEK, Nε-2-azideoethyloxycarbonyl-L-lysine (NAEK) at position 20, conjugated with DBCO-tethered PEG of 20 kDa by copper-free click reaction). Put plainly: SPR. A general note: Surface plasmon resonance follows binding to a sensor surface in real time, without labels.
Assay [2] addresses Y45-20K (IL-2 with 20K PEG conjugated at Tyr45) (UniProt P60568 21-153, Y45 to NAEK, Nε-2-azideoethyloxycarbonyl-L-lysine (NAEK) at position 45, conjugated with DBCO-tethered PEG of 20 kDa by copper-free click reaction). Put plainly: SPR.

B1: extracellular domains of the trimeric IL-2 receptor (IL-2Rαβγ) (complex)
chain 1: ELCDDDPPEIPHATFKAMAYKEGTMLNCECKRGFRRIKSGSLYMLCTGNSSHSSWDNQCQCTSSATRNTTKQVTPQPEEQKERKTTEMQSPMQPVDQASLPGHCREPPPWENEATERIYHFVVGQMVYYQCVQGYRALHRGPAESVCKMTHGKTRWTQPQLICTGEMETSQFPGEEKPQASPEGRPESETSCLVTTTDFQIQTEMAATMETSIFTTEYQ
chain 2: AVNGTSQFTCFYNSRANISCVWSQDGALQDTSCQVHAWPDRRRWNQTCELLPVSQASWACNLILGAPDSQKLTTVDIVTLRVLCREGVRWRVMAIQDFKPFENLRLMAPISLQVVHVETHRCNISWEISQASHYFERHLEFEARTLSPGHTWEEAPLLTLKQKQEWICLETLTPDTQYEFQVRVKPLQGEFTTWSPWSQPLAFRTKPAALGKDT
chain 3: LNTTILTPNGNEDTTADFFLTTMPTDSLSVSTLPLPEVQCFVFNVEYMNCTWNSSSEPQPTNLTLHYWYKNSDNDKVQKCSHYLFSEEITSGCQLQKKEIHLYQTFVVQLQDPREPRRQATQMLKLQNLVIPWAPENLTLHKLSESQLELNWNNRFLNHCLEHLVQYRTDWDHSWTEQSVDYRHKFSLPSVDGQKRYTFRVRSRFNPLCGSAQHWSEWSHPIHWGSNTSKENPFLFALEA
Molecule B1 displayed a Kd in assay [1] of 58.1 nM.

B2: extracellular domains of the dimeric IL-2 receptor (IL-2Rβγ) (complex)
chain 1: AVNGTSQFTCFYNSRANISCVWSQDGALQDTSCQVHAWPDRRRWNQTCELLPVSQASWACNLILGAPDSQKLTTVDIVTLRVLCREGVRWRVMAIQDFKPFENLRLMAPISLQVVHVETHRCNISWEISQASHYFERHLEFEARTLSPGHTWEEAPLLTLKQKQEWICLETLTPDTQYEFQVRVKPLQGEFTTWSPWSQPLAFRTKPAALGKDT
chain 2: LNTTILTPNGNEDTTADFFLTTMPTDSLSVSTLPLPEVQCFVFNVEYMNCTWNSSSEPQPTNLTLHYWYKNSDNDKVQKCSHYLFSEEITSGCQLQKKEIHLYQTFVVQLQDPREPRRQATQMLKLQNLVIPWAPENLTLHKLSESQLELNWNNRFLNHCLEHLVQYRTDWDHSWTEQSVDYRHKFSLPSVDGQKRYTFRVRSRFNPLCGSAQHWSEWSHPIHWGSNTSKENPFLFALEA
Molecule B2 had a dissociation constant (Kd) in assay [2] of 32.8 nM.

B3: extracellular domain of the IL-2 receptor β chain (IL-2Rβ) (receptor)
chain: AVNGTSQFTCFYNSRANISCVWSQDGALQDTSCQVHAWPDRRRWNQTCELLPVSQASWACNLILGAPDSQKLTTVDIVTLRVLCREGVRWRVMAIQDFKPFENLRLMAPISLQVVHVETHRCNISWEISQASHYFERHLEFEARTLSPGHTWEEAPLLTLKQKQEWICLETLTPDTQYEFQVRVKPLQGEFTTWSPWSQPLAFRTKPAALGKDT
In assay [2], B3 gave a dissociation constant (Kd) of 690 nM.

B4: extracellular domain of the IL-2 receptor α chain (IL-2Rα, CD25) (receptor)
chain: ELCDDDPPEIPHATFKAMAYKEGTMLNCECKRGFRRIKSGSLYMLCTGNSSHSSWDNQCQCTSSATRNTTKQVTPQPEEQKERKTTEMQSPMQPVDQASLPGHCREPPPWENEATERIYHFVVGQMVYYQCVQGYRALHRGPAESVCKMTHGKTRWTQPQLICTGEMETSQFPGEEKPQASPEGRPESETSCLVTTTDFQIQTEMAATMETSIFTTEYQ
B4 had a dissociation constant Kd in assay [1] of 99.9 nM.
